Data: paper doi:10.1101/794511 (bioRxiv, 2019)

B1: Ascl1 amino acids 92-231 containing the bHLH domain, His-tagged (domain or fragment)
chain: MRCKRRLNFSGFGYSLPQQQPAAVARRNERERNRVKLVNLGFATLREHVPNGAANKKMSKVETLRSAVEYIRALQQLLDEHDAVSAAFQAGVLSPTISPNYSNDLNSMAGSPVSSYSSDEGSYDPLSPEEQELLDFTNWF

Columns and labels:
native gel or EMSA = target: the molecule itself; experiment: native gel or EMSA
[1] = target: B1; experiment: native gel or EMSA

Binder: B1
- binding result (native gel or EMSA): binds

B2: Gsx2^N253A amino acids 167-305 containing the mutated homeodomain, His-tagged (domain or fragment)
chain: not shown
- binding result [1]: binds
